Assay results published in patent US20230107034A1 (BRIGHAM AND WOMEN S HOSPITAL, published 2023).
Where “and” joins values, the source holds several entries; their conditions need not be identical. Equal values may be shown once.

Experiments:
[1] = target: soluble synaptotoxic Aβ in aqueous human AD brain extract (human, UniProt P05067 18-701); experiment: cell-based or functional assay
[2] = target: T1, synthetic Aβ-derived diffusible ligands (ADDLs) (UniProt P05067 672-713); experiment: binding profile column of Table 5
T1 construct: domain: Aβ1-42; Oligomeric assembly; also called synthetic Aβ oligomers

monomeric Aβ = target: T2, monomeric Aβ (UniProt P05067 672-713); experiment: binding profile column of Table 5
T2 construct: also called Aβ monomer; Aβ1-40 monomer and/or Aβ1-42 monomer

[3] = target: T3, synthetic Aβ protofibrils (Aβ1-42-derived protofibrils) (UniProt P05067 672-713); experiment: binding profile column of Table 5
T3 construct: domain: Aβ1-42; Multimeric assembly; also called PF; PFs
T3 sequence (P05067 672-713 limits assumed): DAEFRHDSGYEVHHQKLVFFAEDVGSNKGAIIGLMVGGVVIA

Sequence of soluble synaptotoxic Aβ in aqueous human AD brain extract (P05067 18-701): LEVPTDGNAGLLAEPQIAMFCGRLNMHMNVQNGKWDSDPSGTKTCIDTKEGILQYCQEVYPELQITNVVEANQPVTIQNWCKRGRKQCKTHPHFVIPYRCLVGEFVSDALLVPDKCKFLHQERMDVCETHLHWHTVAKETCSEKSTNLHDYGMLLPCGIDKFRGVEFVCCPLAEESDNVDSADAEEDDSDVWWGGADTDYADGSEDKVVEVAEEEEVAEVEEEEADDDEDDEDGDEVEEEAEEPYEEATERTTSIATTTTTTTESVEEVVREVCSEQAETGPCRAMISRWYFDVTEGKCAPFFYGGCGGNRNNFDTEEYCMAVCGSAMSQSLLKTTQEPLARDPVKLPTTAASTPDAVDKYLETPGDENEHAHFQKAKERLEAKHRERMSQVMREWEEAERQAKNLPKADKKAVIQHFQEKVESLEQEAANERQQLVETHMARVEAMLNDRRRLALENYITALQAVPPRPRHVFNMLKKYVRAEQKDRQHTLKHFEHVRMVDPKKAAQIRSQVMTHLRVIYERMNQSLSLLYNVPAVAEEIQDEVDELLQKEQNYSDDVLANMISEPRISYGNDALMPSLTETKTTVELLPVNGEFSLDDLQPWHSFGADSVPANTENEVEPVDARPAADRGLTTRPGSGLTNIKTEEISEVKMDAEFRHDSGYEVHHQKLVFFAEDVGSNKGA
T2 sequence (P05067 672-713): as the sequence (P05067 672-713 limits assumed) above
T1 sequence (P05067 672-713 limits assumed): as above

B1: rB28 (recombinant B28, human IgG1 LALA) (antibody, V domains shown)
VH: QVQLVESGGGVVQPGRSVRLSCAATGFTFSSYGMHWVRQAPGKGLEWVAVIWFDGSNEYYADSVRGRFTISRDNSKNTLYLQMNSLRAEDTAVYYCARRGRVGVTRNYYYYNMDVWGQGTTVTVSS
VL: AIQMTQSPSSLSASVGDRVTITCRASQGIRNDLGWFQQKPGKAPKLLIYPASSLQSGVPSRFSGSGSDTDFTLTISSLQPEDFATYYCLQDYNFPFTFGPGTKVDIKR
[1]
  EC50 of neuritotoxicity protection, iN cellular assay, Mean: 1.53 µg/mL
  EC50 of neuritotoxicity protection, iN cellular assay, Run11: 1.76 µg/mL
  EC50 of neuritotoxicity protection, iN cellular assay, Run12: 1.34 µg/mL
  EC50 of neuritotoxicity protection, iN cellular assay, Run13: 1.5 µg/mL

B2: B75 (hybridoma-purified mAb) (antibody, V domains shown)
VH: QVQLVESGGGVVQPGRSLRLSCAASGFTFSSYGMHWVRQAPGKGLEWVAVIWYDGSYKYYADSVKGRFTISRDNSKNTLYLQMNSLRVEDTAVYYCAREGRTYYDFLTGYFDFWGQGTLVTVSS
VL: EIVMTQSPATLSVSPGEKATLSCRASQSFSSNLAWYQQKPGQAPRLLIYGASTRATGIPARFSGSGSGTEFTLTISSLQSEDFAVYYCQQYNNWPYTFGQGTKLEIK
[1]
  EC50 of neuritotoxicity protection, iN cellular assay, Mean: 2.05 µg/mL
  EC50 of neuritotoxicity protection, iN cellular assay, Run13: 2.05 µg/mL

B3: rB75 (recombinant B75, human IgG1 LALA) (antibody, V domains shown)
VH: QVQLVESGGGVVQPGRSLRLSCAASGFTFSSYGMHWVRQAPGKGLEWVAVIWYDGSYKYYADSVKGRFTISRDNSKNTLYLQMNSLRVEDTAVYYCAREGRTYYDFLTGYFDFWGQGTLVTVSS
VL: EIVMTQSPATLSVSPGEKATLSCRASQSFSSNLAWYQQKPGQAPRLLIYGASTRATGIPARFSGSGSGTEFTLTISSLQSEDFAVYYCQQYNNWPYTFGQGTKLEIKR
[1]
  EC50 of neuritotoxicity protection, iN cellular assay, Mean: 4.08 µg/mL
  EC50 of neuritotoxicity protection, iN cellular assay, Run15: 2.11 µg/mL
  EC50 of neuritotoxicity protection, iN cellular assay, Run16: 6.04 µg/mL

B4: rC11 (recombinant C11, human IgG1 LALA) (antibody, V domains shown)
VH: QVQLQESGPGLVKPSETLSLTCTVSGGSISSYYWSWIRQPPGKGLEWIGSIYYSGTTKYNPSLKSRVTISVGTSKNQFSLKLNSVTAADTAVYYCARDNWGSRFDYWGQGTLVTVSS
VL: DIQMTQSPSSLSASVGDRVTITCRASQGIRNDLGWYQQKPGKAPTLLIYAASSLQSGVPSRFSGSGSGTDFTLTISSLQPEDFATYYCLQDFNYPYTFGQGTKLEIKR
[1]
  EC50 of neuritotoxicity protection, iN cellular assay, Mean: 2.79 µg/mL
  EC50 of neuritotoxicity protection, iN cellular assay, Run16: 3.58 µg/mL and 2.19 µg/mL
  EC50 of neuritotoxicity protection, iN cellular assay, Run17: 2.58 µg/mL

B5: C10 (hybridoma-purified mAb) (antibody, V domains shown)
VH: QVQLQESGPGLVKPSETLSLTCTVSGGSISSYYWSWIRQPPGKGLEWIGSIYYSGTTKYNPSLKSRVTISVGTSKNQFSLKLNSVTAADTAVYYCARDNWGSRFDYWGQGTLVTVSS
VL: DIQMTQSPSSLSASVGDRVTITCRASQGIRNDLGWYQQKPGKAPTLLIYAASSLQSGVPSRFSGSGSGTDFTLTISSLQPEDFATYYCLQDFNYPYTFGQGTKLEIK
notes: also called purified clone C10
[2]
  binding result: no binding
Monomeric Aβ
  binding result: no binding
[3]
  binding result: no binding

B6: C11 (hybridoma-purified mAb) (antibody, V domains shown)
VH: QVQLQESGPGLVKPSETLSLTCTVSGGSISSYYWSWIRQPPGKGLEWIGSIYYSGTTKYNPSLKSRVTISVGTSKNQFSLKLNSVTAADTAVYYCARDNWGSRFDYWGQGTLVTVSS
VL: DIQMTQSPSSLSASVGDRVTITCRASQGIRNDLGWYQQKPGKAPTLLIYAASSLQSGVPSRFSGSGSGTDFTLTISSLQPEDFATYYCLQDFNYPYTFGQGTKLEIK
notes: Purified from a Trianni mouse hybridoma (FusC); also called purified clone C11
[2]
  binding result: no binding
Monomeric Aβ
  binding result: no binding
[3]
  binding result: no binding

B7: rB24 (recombinant B24, human IgG1 LALA) (antibody, V domains shown)
VH: EVQLLESGGGLVQPGGSLRLSCAASGFTFSSYAMTWVRQAPGEGLEWVSTISGSGIRTYYADSVKGRFTISRDNSKNTMYLQMNSLRAEDTAVYYCAKDGLTGDRRWYFDLWGRGTLVTVSS
VL: EIVMTQSPATLSLSPGERATLSCRASQSVSSSYFSWYQQKPGQAPRLLIYGASTRATGIPARFSGSGSGTDFTLTISSLQPEDFAVYYCQQDSNLPLTFGGGTKVEIKR
[1]
  EC50 of neuritotoxicity protection, iN cellular assay, Mean: 3.97 µg/mL
  EC50 of neuritotoxicity protection, iN cellular assay, Run15: 2.53 µg/mL
  EC50 of neuritotoxicity protection, iN cellular assay, Run17: 5.4 µg/mL

B8: rB73 (recombinant B73, human IgG1 LALA) (antibody, V domains shown)
VH: QLQLQMSGPGLVKPSETLSLTCTVSGGSISSSSYYWGWIRQSPGKGLEWIGSIYYSGRTYYNPSLKSRVTISVDTSKNQFSLKLSSVTAADTAMYYCARRSSGRPYYWGQGTLVTVSS
VL: QAVVTQESALTTSPGGTVILTCRSSTGAVTTSNYANWVQEKPDHLFTGLIGETNNRAPGVPVRFSGSLIGDKAALTITGAQTEDDAMYFCALWYSTHWVFGGGTKLTVLG
[1]
  EC50 of neuritotoxicity protection, iN cellular assay, Mean: 1.94 µg/mL
  EC50 of neuritotoxicity protection, iN cellular assay, Run10: 1.98 µg/mL
  EC50 of neuritotoxicity protection, iN cellular assay, Run11: 1.97 µg/mL
  EC50 of neuritotoxicity protection, iN cellular assay, Run12: 1.49 µg/mL
  EC50 of neuritotoxicity protection, iN cellular assay, Run14: 2.32 µg/mL
